Measured values from patent US20190112392A1.

Biological target: soluble recombinant cynomolgus TCR alpha/beta-zipper protein (cynomolgus/rhesus monkey)
Test: ELISA, 2 µg/mL coated soluble recombinant cynomolgus TCR α/β-zipper protein, OD 450 nm

Sequence of soluble recombinant cynomolgus TCR alpha/beta-zipper protein (cynomolgus/rhesus monkey) (TCR alpha, as listed by the source, chain 1 of 2): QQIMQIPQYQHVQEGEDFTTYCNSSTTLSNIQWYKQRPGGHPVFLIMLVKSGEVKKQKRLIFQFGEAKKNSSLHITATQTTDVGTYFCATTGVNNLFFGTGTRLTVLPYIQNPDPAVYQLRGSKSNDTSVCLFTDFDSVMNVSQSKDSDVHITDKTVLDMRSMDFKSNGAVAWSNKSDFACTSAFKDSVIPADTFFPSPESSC
Sequence of soluble recombinant cynomolgus TCR alpha/beta-zipper protein (cynomolgus/rhesus monkey) (TCR beta, as listed by the source, chain 2 of 2): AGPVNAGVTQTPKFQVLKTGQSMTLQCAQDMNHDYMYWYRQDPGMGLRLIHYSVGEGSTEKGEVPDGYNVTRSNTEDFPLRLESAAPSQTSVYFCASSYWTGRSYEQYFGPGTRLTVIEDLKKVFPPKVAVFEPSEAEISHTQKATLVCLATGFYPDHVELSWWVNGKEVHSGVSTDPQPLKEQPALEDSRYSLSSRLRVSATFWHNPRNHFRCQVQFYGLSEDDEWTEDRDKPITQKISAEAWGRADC

EC50 (read off the curve): 0.1 nM
Substance: anti-non-human primate/Rat TCRα/β antibody clone R73
